# Measured values from patent US5558864A, “Humanized and chimeric anti-epidermal growth factor receptor monoclonal antibodies” (Merck Patent Gesellschaft Mit Beschrankter Haftung, dated 1996).
# Entries after “also recorded” stand apart in the source; their conditions may differ.
# Experiments:
# [1] = tested on: EGFR solubilized from A431 membranes; assay: Competitive binding of purified antibodies against biotin-labelled MAb 425 (Example 11); set-up: species or system human; details: competition with biotin-labelled MAb 425, inhibition curves FIG. 10
# Method: Biotin-labelled MAb 425 was Used to compete with unlabelled MAb 425 or derivates for binding to EGFR. Biotin-labelling occurred according to standard methods. EGFR was solubilized from A431 membranes by standard methods. A431 cells were commercially purchased. Detection was done after incubation with POD-conjugated streptavidin and substrate.
# EGFR protein [2] = assay: ELISA for antigen binding to EGFR; details: transfected cell supernatants, detection with anti-human IgG; VH versions co-transfected with RVL a425, ranked: highest > followed by > then followed by > low > never detectable
# Method: Human IgG present in COS cell supernatants was detected by ELISA: In the ELISA assay for human IgG, 96-well plates were coated with goat anti-human IgG (whole molecule) and human IgG in the samples that bound to the plates was detected using alkaline phosphatase-conjugated goat anti-human IgG (gamma-chain specific). Purchasable purified human IgG was used as a standard. Binding to the antigen recognized by MAb 425 was determined in a second ELISA. Plates were coated with an EGFR protein preparation (obtainable, for example, according to Rodeck et al., 1980) and antibodies binding to EGFR were detected using either an anti-human IgG (gamma-chain specific) peroxidase conjugate (for chimeric and reshaped human antibodies) or an anti-mouse IgG (whole molecule) peroxidase conjugate (for the mouse MAb 425 antibody) (both conjugates supplied by Sigma). Purified murine MAb 425 was used as a standard.
# EGFR protein [3] = assay: Competition binding assay with biotinylated murine MAb 425 (cell supernatants); set-up: species or system human; details: unpurified COS cell supernatants; relative levels of binding, not accurate affinity
# Method: Murine MAb 425 was biotinylated using a correspondingly purchasable kit. ELISA plates were coated with an optimal dilution of the EGFR protein. Dilutions of the COS cell supernatants, in a volume of 50 μl, were mixed with 50 μl of the biotinylated murine MAb 425 (estimated by ELISA to be 1.75 μg/ml). Each COS cell supernatant was tested in duplicate. Plates were incubated at room temperature, overnight. Bound biotinylated murine MAb 425 was detected by the addition of a purchasable streptavidin horseradish peroxidase complex. A control with no competitor present allowed a value of percentage of inhibition or blocking to be calculated for each COS cell supernatant as follows: […]
# [4] = tested on: EGF-receptor positive membranes (A431); assay: Competition of 125I-labelled EGF and antibodies for EGF-receptor, SPA (Example 12); assay type: binding, human; details: purified antibodies, 125I-EGF, FIG. 11
# Method: Different probes of purified murine, chimeric and reshaped MAbs 425 were tested for their potency to compete with EGF regarding their binding to EGFR. The test was performed by competing ^125 I-labelled EGF (Amersham Corp., GB) and various antibodies for binding to EGF-receptor positive membranes (A431). The test system is based on SPA technology (Amersham).
# [5] = tested on: human epidermal growth factor receptor (EGFR); details: cited from earlier work
# [6] = tested on: epidermoid and colorectal carcinoma-derived cell lines; details: in vitro; cited from earlier work
# [7] = molecular target: T1, EGFR protein preparation (epidermal growth factor receptor) (human, UniProt P00533); assay: competition ELISA on EGFR-coated plates, competitor biotinylated murine MAb 425 (FIG. 7, Panel B)
# [8] = molecular target: T1, EGFR protein preparation (epidermal …); assay: antigen-binding ELISA on EGFR protein, COS supernatants, with RVL a425 (FIG. 6)
# [9] = molecular target: T1, EGFR protein preparation (epidermal …); assay: antigen-binding ELISA on EGFR protein, supernatant of co-transfected cells
# [10] = molecular target: T1, EGFR protein preparation (epidermal …); assay: antigen-binding ELISA on EGFR protein, cell supernatants
# [11] = molecular target: T1, EGFR protein preparation (epidermal …); assay: antigen-binding ELISA on EGFR protein, cell supernatants (FIG. 8, Panel A)
# [12] = molecular target: T1, EGFR protein preparation (epidermal …); assay: antigen-binding ELISA on EGFR protein, COS supernatants (FIG. 6)
molecule,measurement,setting,value
Chimeric 425 antibody: mouse 425 VL and VH regions with human kappa and gamma-1 constant regions,binding potency (avidity) to EGFR,[1],similar
same,binding to EGFR in antigen-binding ELISA,EGFR protein [2],binds well to EGFR protein
same,"competition with labelled mouse 425 antibody for binding to antigen (percent inhibition of binding, relative avidity)",EGFR protein [3],just slightly less than that obtained when unlabelled mouse 425 antibody is competed with labelled mouse 425 antibody
same,potency to compete with EGF for binding to EGFR,[4],the same
"MAb 425: murine monoclonal antibody raised against human A431 carcinoma cells, binds EGFR; hybridoma ATCC HB 9629 [reference compound]",binding potency (avidity) to EGFR,[1],similar
same,binding to EGFR epitope,[5],bind to a polypeptide epitope on the external domain of the human epidermal growth factor receptor (EGFR)
same,inhibition of EGF binding to EGFR,[5]; low and high affinity EGFR sites,inhibit the binding of epidermal growth factor (EGF) at both low and high affinity EGFR sites
same,tumor cell growth,[6],suppress tumor cell growth
same,potency to compete with EGF for binding to EGFR,[4],the same; also recorded: nearly identical
"reshaped human 425 antibody with RVL a425 and RVH i425 (antibody, V domains shown) VH: QVQLVQSGAEVKKPGASVKVSCKASGYTFTSHWMHWVRQAPGQGLEWVGEFNPSNGRTNYNEKFKSKATMTVDTSTNTAYMELSSLRSEDTAVYYCASRDYDYDGRYFDYWGQGTLVTVSS VL: DIQMTQSPSSLSASVGDRVTITCSASSSVTYMYWYQQKPGKAPKLLIYDTSNLASGVPSRFSGSGSGTDFTFTISSLQPEDIATYYCQQWSSHIFTFGQGTKVEIK",binding result,[7],binds
"reshaped human 425 antibody with RVL a425 and RVH f425 (antibody, V domains shown) VH: QVQLVQSGAEVKKPGASVKVSCKASGYTFSSHWMHWVRQAPGQGLEWIGEFNPSNGRTNYNEKFKSKATMTVDTSTNTAYMELSSLRSEDTAVYYCASRDYDYDGRYFDYWGQGTLVTVSS VL: DIQMTQSPSSLSASVGDRVTITCSASSSVTYMYWYQQKPGKAPKLLIYDTSNLASGVPSRFSGSGSGTDFTFTISSLQPEDIATYYCQQWSSHIFTFGQGTKVEIK",binding result,[8],binds
"reshaped human 425 antibody with RVL a425 and RVH a425 (antibody, V domains shown) VH: QVQLVQSGAEVKKPGASVKVSCKASGYTFSSHWMHWVRQAPGQGLEWVGEFNPSNGRTNYNEKFKSRVTMTLDTSTNTAYMELSSLRSEDTAVYYCASRDYDYDGRYFDYWGQGTLVTVSS VL: DIQMTQSPSSLSASVGDRVTITCSASSSVTYMYWYQQKPGKAPKLLIYDTSNLASGVPSRFSGSGSGTDFTFTISSLQPEDIATYYCQQWSSHIFTFGQGTKVEIK",binding result,[9],no binding
"reshaped human 425 antibody with RVL b425 and RVH b425 (antibody, V domains shown) VH: QVQLVQSGAEVKKPGASVKVSCKASGYTFSSHWMHWVRQAPGQGLEWVGEFNPSNGRTNYNEKFKSRVTMTVDTSTNTAYMELSSLRSEDTAVYYCASRDYDYDGRYFDYWGQGTLVTVSS VL: DIQMTQSPSSLSASVGDRVTITCSASSSVTYMYWYQQKPGKAPKLLIYDTSNLASGVPSRFSGSGSGTDYTFTISSLQPEDIATYYCQQWSSHIFTFGQGTKVEIK",binding result,[10],binds
"reshaped human 425 antibody with RVL a425 and RVH b425 (antibody, V domains shown) VH: QVQLVQSGAEVKKPGASVKVSCKASGYTFSSHWMHWVRQAPGQGLEWVGEFNPSNGRTNYNEKFKSRVTMTVDTSTNTAYMELSSLRSEDTAVYYCASRDYDYDGRYFDYWGQGTLVTVSS VL: DIQMTQSPSSLSASVGDRVTITCSASSSVTYMYWYQQKPGKAPKLLIYDTSNLASGVPSRFSGSGSGTDFTFTISSLQPEDIATYYCQQWSSHIFTFGQGTKVEIK",binding result,[8],binds
"reshaped human 425 antibody with RVL a425 and RVH c425 (antibody, V domains shown) VH: QVQLVQSGAEVKKPGASVKVSCKASGYTFSSHWMHWVRQAPGQGLEWVGEFNPSNGRTNYNEKFKSKATMTVDTSTNTAYMELSSLRSEDTAVYYCASRDYDYDGRYFDYWGQGTLVTVSS VL: DIQMTQSPSSLSASVGDRVTITCSASSSVTYMYWYQQKPGKAPKLLIYDTSNLASGVPSRFSGSGSGTDFTFTISSLQPEDIATYYCQQWSSHIFTFGQGTKVEIK",binding result,[8],binds
"reshaped human 425 antibody with RVL a425 and RVH h425 (antibody, V domains shown) VH: QVQLVQSGAEVKKPGASVKVSCKASGYTFTSHWMHWVRQAPGQGLEWVGEFNPSNGRTNYNEKFKSRVTMTVDTSTNTAYMELSSLRSEDTAVYYCASRDYDYDGRYFDYWGQGTLVTVSS VL: DIQMTQSPSSLSASVGDRVTITCSASSSVTYMYWYQQKPGKAPKLLIYDTSNLASGVPSRFSGSGSGTDFTFTISSLQPEDIATYYCQQWSSHIFTFGQGTKVEIK",binding result,[8],binds
"antibody with chimeric 425 light chain and reshaped human 425 heavy chain version a (antibody, V domains shown) VH: QVQLVQSGAEVKKPGASVKVSCKASGYTFSSHWMHWVRQAPGQGLEWVGEFNPSNGRTNYNEKFKSRVTMTLDTSTNTAYMELSSLRSEDTAVYYCASRDYDYDGRYFDYWGQGTLVTVSS VL: QIVLTQSPAIMSASPGEKVTMTCSASSSVTYMYWYQQKPGSSPRLLIYDTSNLASGVPVRFSGSGSGTSYSLTISRMEAEDAATYYCQQWSSHIFTFGSGTKLEIK",binding result,[9],no binding
"reshaped human 425 antibody with RVL b425 and RVH c425 (antibody, V domains shown) VH: QVQLVQSGAEVKKPGASVKVSCKASGYTFSSHWMHWVRQAPGQGLEWVGEFNPSNGRTNYNEKFKSKATMTVDTSTNTAYMELSSLRSEDTAVYYCASRDYDYDGRYFDYWGQGTLVTVSS VL: DIQMTQSPSSLSASVGDRVTITCSASSSVTYMYWYQQKPGKAPKLLIYDTSNLASGVPSRFSGSGSGTDYTFTISSLQPEDIATYYCQQWSSHIFTFGQGTKVEIK",binding result,[11],binds
"reshaped human 425 antibody with RVL a425 and RVH d425 (antibody, V domains shown) VH: QVQLVQSGAEVKKPGASVKVSCKASGYTFSSHWMHWVRQAPGQGLEWIGEFNPSNGRTNYNEKFKSRVTMTLDTSTNTAYMELSSLRSEDTAVYYCASRDYDYDGRYFDYWGQGTLVTVSS VL: DIQMTQSPSSLSASVGDRVTITCSASSSVTYMYWYQQKPGKAPKLLIYDTSNLASGVPSRFSGSGSGTDFTFTISSLQPEDIATYYCQQWSSHIFTFGQGTKVEIK",binding result,[12],no binding
"antibody with reshaped human 425 light chain version a and chimeric 425 heavy chain (antibody, V domains shown) VH: QVQLQQPGAELVKPGASVKLSCKASGYTFTSHWMHWVKQRAGQGLEWIGEFNPSNGRTNYNEKFKSKATLTVDKSSSTAYMQLSSLTSEDSAVYYCASRDYDYDGRYFDYWGQGTTLTVSS VL: DIQMTQSPSSLSASVGDRVTITCSASSSVTYMYWYQQKPGKAPKLLIYDTSNLASGVPSRFSGSGSGTDFTFTISSLQPEDIATYYCQQWSSHIFTFGQGTKVEIK",binding result,[9],binds
